The series in a line: protein stability index of a GFP-peptide fusion (GPS, HEK-293T) (PSI 1-6); higher = more stable. The note with it: c terminus: a fixed tail appended.

± gives the standard deviation.

We go through 37 sequences from the supplement of paper PMC10567573.
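Also: 24-mer peptide tiles fused after GFP, lentivirally expressed, FACS-sorted into six equal bins by GFP/DsRed ratio, decoded by Illumina sequencing, PSI is the read-weighted mean bin number.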

With MSHAAEPARDGVEASAEGPRAVFV [TFE3], the protein stability index worked out at 4.62 ± 0.13 (treatment: DMSO) and 4.86 ± 0.09 (treatment: MLN4924 1 uM, 8 h).
Regarding MSRMINKYKRRRFQKTKNLLTGET [CLPTM1], the protein stability index is, setting by setting: (treatment: DMSO) 3.05 ± 0.32; (treatment: MLN4924 1 uM, 8 h) 3.26 ± 0.35.
As for MSYSCCLPSLGCRTSCSSRPCVPP [KRT34], the protein stability index by setting is: (treatment: DMSO) 2.22 ± 0.17; (treatment: MLN4924 1 uM, 8 h) 2.37 ± 0.4.
For the sequence MTGAYNNFFRMFDRNTKRDVTLEA [PPP2R2C], the protein stability index is, setting by setting: (treatment: DMSO) 3.03 ± 0.45; (treatment: MLN4924 1 uM, 8 h) 3.14 ± 0.33.
MVERRGPGRPRTDGENVFTGQSKI [KMT5A]: for the setting “treatment: DMSO”, the protein stability index is 4.19 ± 0.36.
Consider MYFSQEEWELLDPTQKALYNDVMQ [ZNF75A], for which the protein stability index worked out at 3.67 ± 0.08 (treatment: DMSO) and 3.74 ± 0.33 (treatment: MLN4924 1 uM, 8 h).
Regarding MYSEIQRERADIGGLMARPEYREW [FAM107A], the protein stability index (treatment: DMSO) stood at 2.93 ± 0.26 and the protein stability index (treatment: MLN4924 1 uM, 8 h) came to 2.92 ± 0.42.
Regarding NARGASIFSVTALDPDSKENAQII [PCDHGA10], the protein stability index by setting is: (treatment: DMSO) 3.75 ± 0.12; (treatment: MLN4924 1 uM, 8 h) 3.97 ± 0.24.
For NDGWTPLHVAAHYGRDSFVRLLLE [ASB7], the protein stability index by setting is: (treatment: DMSO) 2.45 ± 0.18; (treatment: MLN4924 1 uM, 8 h) 2.59 ± 0.27.
With NDRVQTIITQLEDSRRVTKENSHQ [TRIM63], the protein stability index was found to be 4.99 ± 0.23 (treatment: DMSO) and 4.92 ± 0.13 (treatment: MLN4924 1 uM, 8 h).
For NDTAGPELPDPLGGLLDEAMLDEI [NFE2L1], in that order: 5.22 ± 0.41 and 5.6 ± 0.13.
Regarding NEIQCTGNEKSIIDCKFNAESQGC [LOXL2], the protein stability index (treatment: DMSO) was determined as 4.88 ± 0.36 and the protein stability index (treatment: MLN4924 1 uM, 8 h) is 4.79 ± 0.58.
For the sequence NELTLNEKNFFPEYNYDWWEKKPF [CHGB], the protein stability index by setting is: (treatment: DMSO) 2.73 ± 0.24; (treatment: MLN4924 1 uM, 8 h) 3 ± 0.35.
On to NENPNNFQILLLSDPSTIEASNFQ [PNLIPRP1], for which the protein stability index is, setting by setting: (treatment: DMSO) 3.33 ± 0.36; (treatment: MLN4924 1 uM, 8 h) 3.44 ± 0.5.
In the same order, the values of NFLIGRQGNKKEHVIHIIDFGLAK [CSNK1G1] are 2.45 ± 0.66 and 1.89 ± 0.39.
Regarding NFNPLLVAGGVAVAAIALILGVAF [CEND1], the protein stability index reads like this: (treatment: DMSO) 3.24 ± 0.27; (treatment: MLN4924 1 uM, 8 h) 3.47 ± 0.22.
In the case of NGFGLVEDSAQNCFALIPKAPKKD [EFHC1], the protein stability index (treatment: DMSO) stood at 4.75 ± 0.34 and the protein stability index (treatment: MLN4924 1 uM, 8 h) was 4.74 ± 0.13.
In turn, NHSLETCETTLFALRMATWNQILD [PTGFR] showed a protein stability index (treatment: DMSO) of 2.25 ± 0.52 and a protein stability index (treatment: MLN4924 1 uM, 8 h) of 2 ± 0.27.
As to NIPERASGPEGNLNQIVTEPDANF [FAM104B], the protein stability index amounted to 5.35 ± 0.15 (treatment: DMSO) and 5.23 ± 0.47 (treatment: MLN4924 1 uM, 8 h).
With NITRLQLETEIEALKEELLFMKKN [KRT18], the protein stability index is 2.82 ± 0.091 (treatment: DMSO) and 3.05 ± 0.51 (treatment: MLN4924 1 uM, 8 h).
Turning to NKFASFIDKVRFLEQQNQVLETKW [KRT71], the protein stability index runs as follows: (treatment: DMSO) 2.58 ± 0.42; (treatment: MLN4924 1 uM, 8 h) 2.49 ± 0.4.
For the sequence NKPGCEHECVNMEESYYCRCHRGY [MATN2], the protein stability index turned out to be 4.3 ± 0.72 (treatment: DMSO) and 4.24 ± 0.22 (treatment: MLN4924 1 uM, 8 h).
Turning to NKYMVTDGAAYIGNFDWVGNDFTQ [PLD5], the protein stability index is, setting by setting: (treatment: DMSO) 2.87 ± 0.25; (treatment: MLN4924 1 uM, 8 h) 2.62 ± 0.3.
NLVLSEDRKSVKFVETRLRDLPDT [TRIM39] came in with a protein stability index (treatment: DMSO) of 4.31 ± 0.25 and a protein stability index (treatment: MLN4924 1 uM, 8 h) of 4.37 ± 0.2.
Sequence NMLKNIELFDKLSLRFNGRVLFIK [KCTD10] came in with a protein stability index (treatment: DMSO) of 2.68 ± 0.48 and a protein stability index (treatment: MLN4924 1 uM, 8 h) of 2.43 ± 0.35.
Turning to NNADLCLTDDKQVLNTQGQKTSGQ [DLC1], the protein stability index worked out at 5.18 ± 0.27 (treatment: DMSO) and 5.16 ± 0.23 (treatment: MLN4924 1 uM, 8 h).
For NNSWIRKNSTMVNSEDIFLLLCLK [TRIM43], in that order: 2.84 ± 0.42 and 2.23 ± 0.43.
For the sequence NPPSDFSFQNMNSKRKAETWKKNR [STK38L], the protein stability index was 4.65 ± 0.45 (treatment: DMSO) and 4.42 ± 0.22 (treatment: MLN4924 1 uM, 8 h).
As to NPVFQDSWDTESSGSDSGGSSSSS [FAM104A], the protein stability index worked out at 5.37 ± 0.37 (treatment: DMSO) and 5.54 ± 0.26 (treatment: MLN4924 1 uM, 8 h).
For NQAAIMELDDTLKYSFLQFDPAPR [PPP2CA], the protein stability index stood at 3.25 ± 0.17 (treatment: DMSO) and 3.38 ± 0.21 (treatment: MLN4924 1 uM, 8 h).
In the same order, the values of NQACKLLSDDYEQVRSAAVQLIWV [INTS4] are 2.62 ± 0.29 and 2.59 ± 0.36.
For the sequence NQLVGPESIAHIGDVMFTGTADGR [APMAP], the protein stability index reads like this: (treatment: DMSO) 4.77 ± 0.31; (treatment: MLN4924 1 uM, 8 h) 4.69 ± 0.08.
In the same order, the values of NRRLQLLEEENKERAKREMVMYSI [MFF] are 3.96 ± 0.19 and 3.6 ± 0.13.
In the same order, the values of NSDMQILTASGDGTCALWDVESGQ [GNB5] are 4.81 ± 0.085 and 4.61 ± 0.36.
With NTNNLTFLMDLPSAGRSMPEASDQ [RNF180], the protein stability index by setting is: (treatment: DMSO) 4.28 ± 0.14; (treatment: MLN4924 1 uM, 8 h) 4.39 ± 0.2.
Sequence NVVTIGLAFFPFLHRLFREKSLDQ [PHTF1] gave a protein stability index (treatment: DMSO) of 2.24 ± 0.32 and a protein stability index (treatment: MLN4924 1 uM, 8 h) of 2.3 ± 0.47.
With NYTSRVWEYSSSIQNSDNDLPVVQ [TRIM29], the protein stability index came to 3.88 ± 0.26 (treatment: DMSO) and 4.02 ± 0.32 (treatment: MLN4924 1 uM, 8 h).
